{"source": "patent US20100291088A1", "about": "(published 2010)", "binders": {"B1": {"name": "IL-18BP-Fc (Fc fusion, UniProt O95998 31-194, looked up, not shown: a dimerising Fc or GST)", "chain": "TPVSQTTTAATASVRSTKDPCPSQPPVFPAAKQCPALEVTWPEVEVPLNGTLSLSCVACSRFPNFSILYWLGNGSFIEHLPGRLWEGSTSRERGSTGTQLCKALVLEQLTPALHSTNFSCVLVDPEQVVQRHVVLAQLWAGLRATLPPTQEALPSSHSSPQQQG"}}, "target": "(4C/A)-huIL-18 (human, UniProt Q14116 37-193)", "test": "cell-based or functional assay", "data": [{"binder": "B1", "values": [{"measurement": "KG-1 neutralization potency in vitro (IC50, nM)", "value": 0.03, "unit": "nM"}]}]}
